{"source": "patent US20250011363A1", "about": "“OPTIMIZED SHORTENED PEPTIDE THAT BINDS TO ACETYLCHOLINE RECEPTOR, AND USE THEREOF” (SKINMED CO., LTD., priority 2021, published 2025)"}
{"biological_target": "acetylcholine receptor", "assay": "SPR, receptor immobilized, peptide 10 uM", "units": {"Binding affinity (RU)": "RU"}}
{"binder": "RFSFKR", "note": "[6mer-2-846]", "Binding affinity (RU)": 30}
{"binder": "RTMDRR", "note": "[6mer-2-879]", "Binding affinity (RU)": 19}
{"binder": "KFWWRR", "note": "[6mer-2-851]", "Binding affinity (RU)": 19}
{"binder": "KMKEKR", "note": "[6mer-2-845]", "Binding affinity (RU)": 14}
{"binder": "RTNEKR", "note": "[6mer-2-883]", "Binding affinity (RU)": 22}
{"binder": "KIHFRK", "note": "[6mer-2-874]", "Binding affinity (RU)": 33}
{"binder": "RIAKRK", "note": "[6mer-2-888]", "Binding affinity (RU)": 17}
{"binder": "KPKMRR", "note": "[6mer-2-842]", "Binding affinity (RU)": 22}
{"binder": "KEPMRR", "note": "[6mer-2-856]", "Binding affinity (RU)": 14}
{"binder": "RNTAKK", "note": "[6mer-2-849]", "Binding affinity (RU)": 13}
{"binder": "KMTMKK", "note": "[6mer-2-884]", "Binding affinity (RU)": 11}
{"binder": "RCNWKR", "note": "[6mer-2-854]", "Binding affinity (RU)": 23}
{"binder": "KHTEKK", "note": "[6mer-2-857]", "Binding affinity (RU)": 20}
{"binder": "REMPKR", "note": "[6mer-2-871]", "Binding affinity (RU)": 31}
{"binder": "RYCHKR", "note": "[6mer-2-847]", "Binding affinity (RU)": 22}
{"binder": "KAWVK", "note": "[5mer-752]", "Binding affinity (RU)": 26}
{"binder": "KCMVRR", "note": "[6mer-2-885]", "Binding affinity (RU)": 17}
{"binder": "REDFRR", "note": "[6mer-2-837]", "Binding affinity (RU)": 32}
{"binder": "RHTFKK", "note": "[6mer-2-862]", "Binding affinity (RU)": 29}
{"binder": "RKHWRR", "note": "[6mer-2-863]", "Binding affinity (RU)": 17}
{"binder": "KMTEKK", "note": "[6mer-2-870]", "Binding affinity (RU)": 21}
{"binder": "KEDNKR", "note": "[6mer-2-876]", "Binding affinity (RU)": 17}
{"binder": "KEADK", "note": "[5mer-750]", "Binding affinity (RU)": 13}
{"binder": "KYWEKK", "note": "[6mer-2-867]", "Binding affinity (RU)": 32}
{"binder": "RTPAKR", "note": "[6mer-2-882]", "Binding affinity (RU)": 15}
{"binder": "KTWVRR", "note": "[6mer-2-886]", "Binding affinity (RU)": 13}
{"binder": "KYMAKK", "note": "[6mer-2-895]", "Binding affinity (RU)": 28}
{"binder": "KPEDR", "note": "[5mer-1050]", "Binding affinity (RU)": 31}
{"binder": "KKKDKK", "note": "[6mer-2-898]", "Binding affinity (RU)": 16}
{"binder": "RCPKKR", "note": "[6mer-2-887]", "Binding affinity (RU)": 18}
{"binder": "KHTGRR", "note": "[6mer-2-853]", "Binding affinity (RU)": 29}
{"binder": "KAPDRK", "note": "[6mer-2-843]", "Binding affinity (RU)": 33}
{"binder": "KPNFRR", "note": "[6mer-2-860]", "Binding affinity (RU)": 31}
{"binder": "KHTWR", "note": "[5mer-749]", "Binding affinity (RU)": 24}
{"binder": "KTSMKR", "note": "[6mer-2-850]", "Binding affinity (RU)": 16}
{"binder": "KHEHK", "note": "[5mer-1053]", "Binding affinity (RU)": 27}
{"binder": "REMIKR", "note": "[6mer-2-855]", "Binding affinity (RU)": 19}
{"binder": "RYMMR", "note": "[5mer-751]", "Binding affinity (RU)": 20}
{"binder": "RHCNRK", "note": "[6mer-2-865]", "Binding affinity (RU)": 16}
{"binder": "RMTERK", "note": "[6mer-2-848]", "Binding affinity (RU)": 29}
{"binder": "KTHFRK", "note": "[6mer-2-872]", "Binding affinity (RU)": 28}
{"binder": "RHDHKR", "note": "[6mer-2-869]", "Binding affinity (RU)": 18}
{"binder": "KDWDRK", "note": "[6mer-2-840]", "Binding affinity (RU)": 15}
{"binder": "KPPERR", "note": "[6mer-2-877]", "Binding affinity (RU)": 17}
{"binder": "KNTMKR", "note": "[6mer-2-836]", "Binding affinity (RU)": 26}
{"binder": "KNWGRR", "note": "[6mer-2-873]", "Binding affinity (RU)": 11}
{"binder": "RIDHRK", "note": "[6mer-2-875]", "Binding affinity (RU)": 13}
{"binder": "RTHHKK", "note": "[6mer-2-880]", "Binding affinity (RU)": 12}
{"binder": "KDTDRK", "note": "[6mer-2-861]", "Binding affinity (RU)": 21}
{"binder": "RTPNRR", "note": "[6mer-2-868]", "Binding affinity (RU)": 30}
{"binder": "REHVRR", "note": "[6mer-2-893]", "Binding affinity (RU)": 17}
{"binder": "KPNHRK", "note": "[6mer-2-841]", "Binding affinity (RU)": 33}
{"binder": "RMDFRK", "note": "[6mer-2-859]", "Binding affinity (RU)": 21}
{"binder": "RCTVRK", "note": "[6mer-2-838]", "Binding affinity (RU)": 13}
{"binder": "KNWDR", "note": "[5mer-755]", "Binding affinity (RU)": 15}
{"binder": "KDENRK", "note": "[6mer-2-892]", "Binding affinity (RU)": 27}
{"binder": "RKTPK", "note": "[5mer-753]", "Binding affinity (RU)": 30}
{"binder": "KHHEK", "note": "[5mer-1055]", "Binding affinity (RU)": 15}
{"binder": "RDNPKR", "note": "[6mer-2-890]", "Binding affinity (RU)": 30}
{"binder": "RTCARR", "note": "[6mer-2-896]", "Binding affinity (RU)": 30}
{"binder": "KNHNRR", "note": "[6mer-2-839]", "Binding affinity (RU)": 32}
{"binder": "RNDWR", "note": "[5mer-1052]", "Binding affinity (RU)": 17}
{"binder": "KETVRR", "note": "[6mer-2-878]", "Binding affinity (RU)": 24}
{"binder": "RFHWRR", "note": "[6mer-2-894]", "Binding affinity (RU)": 22}
{"binder": "RNKVR", "note": "[5mer-1054]", "Binding affinity (RU)": 21}
{"binder": "KPPGR", "note": "[5mer-1049]", "Binding affinity (RU)": 29}
{"binder": "RYAHR", "note": "[5mer-1051]", "Binding affinity (RU)": 28}
{"binder": "RDNPKK", "note": "[6mer-2-866]", "Binding affinity (RU)": 24}
{"binder": "RNCERR", "note": "[6mer-2-852]", "Binding affinity (RU)": 28}
{"binder": "RCTPK", "note": "[5mer-1056]", "Binding affinity (RU)": 11}
{"binder": "RKNER", "note": "[5mer-754]", "Binding affinity (RU)": 29}
{"binder": "RCDWR", "note": "[5mer-756]", "Binding affinity (RU)": 18}
{"binder": "RKCAKK", "note": "[6mer-2-864]", "Binding affinity (RU)": 12}
{"binder": "KEEHRR", "note": "[6mer-2-858]", "Binding affinity (RU)": 30}
{"binder": "KDTEKK", "note": "[6mer-2-881]", "Binding affinity (RU)": 33}
{"binder": "RTSIRK", "note": "[6mer-2-891]", "Binding affinity (RU)": 28}
{"binder": "REWDKK", "note": "[6mer-2-889]", "Binding affinity (RU)": 12}
{"binder": "RDPKKK", "note": "[6mer-2-844]", "Binding affinity (RU)": 22}
{"binder": "RPAHKK", "note": "[6mer-2-897]", "Binding affinity (RU)": 17}
